Experimental findings from the DeepSol protein solubility set are described below.

This data set in a line: soluble on expression in E. coli; label from the status in PepcDB or PDB records.
On to “MKDAQLNTLCQRHQAVLINSASNSITVAVVDAPSHALLDALHFATQKQIDIVCWTRQQMENHRHKPDQAPSANAAKGGETAAQLLNQTLRSAMAKRASDIHLEPGASRYRIRLRIDGVLHILQDIAKETGLALTARLKVLGNLDIAEHRLPQDGQFTVDLAGDSISFRIATLPCKEGEKVVLRLLHQVEQTLDLDTLGMYGAQLTAFRQALQQPQGLVLVTGPTGSGKTVTLYSALQTRNTPGINLCSVEDPIEIPLDGINQTQIHPRAGLTFQNVLRALLRQDPDIIMVGEIRDGDTAEIAIKAAQTGHLVLSTLHTNSTSETLIRLQQMGVARWMISSALTLVVAQRLVRKLCPHCKQRLSDPVVLSPNLWPSAIPRWQASGCQHCYHGFYGRTALFEVLTVTPALRQLIASGASAQALEAHLQQTGTGTLFENGCRAVEQGMTSFEEILCVLGMPHER”, for which the “soluble on expression in E. coli” value is “not soluble”.

For “MKEETFYLVREDVLPDAMRKTLEVKKLLDRKKADSVADAVQKVDLSRSAFYKYRDAVFPFYTMVKEQIITLFFHLEDRSGALSQLLQAVADSGSNVLSIHQTIPLQGRANVTLSISTSAMEEDIHTLMNKLRKFDFVEKVEILGSGA”, the “soluble on expression in E. coli” value was “not soluble”.

For the sequence “MKEIWYVRHGETEWNAQRRFQGHLDIPLSPVGIGQAFRLAERLSRSRISFDRLYASDLRRARQTAEPLAQVLGLPIATTPLLREIHVGELAGLTRAEAEARFPSFLAEAAEDPWNARRPGGESMADLARRLQAFLEEVPPGRHLVVTHGGVIRAALKLALDLAGDTWRRFHIQNTSITRILYPENAVLTVADAAHLEVWADWLSDEDLKG”, the “soluble on expression in E. coli” value was “soluble”.

For “MKELDKIDFRILKILQQNARIPMTELAEKVGLSTTPVTERVRRLEREHYISGYHAHLNPHLLGKPLLVFVELKLQSKSGNIFEDFKKEVLKIPQIMECHLVSGEYDYLIKVRLPDMSAYRDMLGNILLQLPAASESRSYVVMEEVKENPVLDLD”, the “soluble on expression in E. coli” value is listed as “soluble”.

On to “MKELKQAEQIRTWVQSILTDESSGHDWHHVSRVADLAAYIGEKEKADLFIVETAALVHDLIDVKLPDTVRLSVSEVYDQLVFFGVGKENADRVIHIITRMSFRDRGKLAKEPLSIEGKAVQDADRLDAIGAVGIARAFMFAGAKGHGLYGDEQSAYAHFFHKLLRLKDMMNTDTARELAEERHNFMLQFVRQLEKDIPGIDAETS”, for which the “soluble on expression in E. coli” value is “not soluble”.

On to “MKEVKVGIGDYAVGKGNGIISTYGLGSCVGITLYDRVTKVGGLLHALLPEAARYGHRGNPAKYVDTGLQLLLKEVIKLGASKFRLEAKLFGGAQMFDNIRSEELKIGEKNVQVAKRELRKLGIRLVAEDTGGKGGRTIYLDLSTGKVRMRKVTEGKVIEKVY”, for which the “soluble on expression in E. coli” value was “soluble”.

Regarding “MKEYLKEVLDVSGEKFFILNPMIPNMDSNKPNFIIGKKSLIYTGKFAKDWNSDEILEAFAKIVRTNPDFRLIVAGDKFNLHPENPNFKEEVTQKLKTYKNVDWVGGVTREEVQKLIQQSDIGIGWRNNSLNDSLELSTKALEYGALGKPVILNRTPMHERLFGSEYPFYANSEEEFISCITQSLTNDDIYASAAETVYKVCTDFTFAKTYERISPFLWEAKDKRIRLVFAGHDLKFAKMFIDRFASRTRYEVEIDQWKGHSVNDESHSTNCLNWADVIFCEWGLGNAVWYSHRVRQGQTLIVRMHLQERETKHYLKFNYDAIDSIIAISPYIRDEFVNNCGIPSDNMVMIYNAVNCKKFDLEKYEDTQFNLGITGICPSRKRLDRAIDIFEKLKEKDSRYTLHIKGQLPTHYPWLWKKEEEKKYYEQVFKRINSSKWRDSIIFDGFGNDMDTWFQKIGYILSTSDFESFHLAPAEGMASGAFPIIIRWEGCHTIYDEDFIFENVDEAATFILKRNQVMGPNDIDVRTYVRNRFDIEKIFGDWEELIARLR”, the “soluble on expression in E. coli” value is “not soluble”.

Turning to “MKFFVFALVLALMISMISADSHEKRHHGYRRKFHEKHHSHREFPFYGDYGSNYLYDNLEHHHHHH”, the “soluble on expression in E. coli” value is “not soluble”.

Turning to “MKFGGVLLIVKDINKSKKFYEDVMEQKITLDLGEHVSFENGFGLQSNYKAIIGYDLPIYQQSNNFQLYFEVNDIKQWESKINRIGNIEFLHYIKEYPWGQRTFRFYDFDKNIIEISESMESVIKRLLKQGLALEEISKRTMYPVEFITQFQQLLEHHHHHH”, the “soluble on expression in E. coli” value is “soluble”.

On to “MKFLQKEELRTLLQSLDLQSGINNDWFLLLIAKTGMRYAEALALTPSDFDWVNATVTIDKSWDYKTHRGFKKTKSTASDREIAIDWQIVGQFKPLIQDLPANDPIFIEKTERGTYKKQYNSTMNNYLEAKCKTLTITVISLHALRHTHASVLLAEGVSIHTISARLGHADVGVTQEIYAHVLDELQKKDDQKMMSVLMQIALEHHHHHH”, for which the “soluble on expression in E. coli” value is listed as “soluble”.

“MKFLYFGDPHIRGTNPRNRKDNYKEALIAKLREIFALAKYKGVTAIIQPGDTFDRPEVTTSVLLEFAKVLKESPVPIYTTAGNHDIYGYNLATYERTSLRVLELIVPQLTVINDPGQAQMFHQDGNHVQLTFTPYSDQIDKAGYGYSPEIIEDYESTKIHIAHGMLLDHDPPFDRYTKVQDVKTEADLVLCGHDHTGFGIYERSDGKVFVNDGSLTRLSASEAEMRRQISVLLIDVKAPRVFDLERIPLQSAKPGEEVLDRSRIEAEKKRAYAMEEFASLIQTETGEDVLVDINTIVESIAKTQSINSDVVEIALTKIAEAKEGLRT”: the “soluble on expression in E. coli” value was “not soluble”.

For the sequence “MKFPKDFMIGYSSSPFQFEAGIPGSEDPNSDWWVWVHDPENTAAGLVSGDFPENGPGYWNLNQNDHDLAEKLGVNTIRVGVEWSRIFPKPTFNVKVPVERDENGSIVHVDVDDKAVERLDELANKEAVNHYVEMYKDWVERGRKLILNLYHWPLPLWLHNPIMVRRMGPDRAPSGWLNEESVVEFAKYAAYIAWKMGELPVMWSTMNEPNVVYEQGYMFVKGGFPPGYLSLEAADKARRNMIQAHARAYDNIKRFSKKPVGLIYAFQWFELLEGPAEVFDKFKSSKLYYFTDIVSKGSSIINVEYRRDLANRLDWLGVNYYSRLVYKIVDDKPIILHGYGFLCTPGGISPAENPCSDFGWEVYPEGLYLLLKELYNRYGVDLIVTENGVSDSRDALRPAYLVSHVYSVWKAANEGIPVKGYLHWSLTDNYEWAQGFRQKFGLVMVDFKTKKRYLRPSALVFREIATHNGIPDELQHLTLIQ”, the “soluble on expression in E. coli” value is “soluble”.

Take “MKFTDKTTQADTQRTITKDGFLVVPATISKVGVFDYLATELGLKEDGIKKVARTEKSLFSDETIKSFENATLTVGHLKDGVNAKNWKQLSVGVVRNVKRVGDELTAEAWIYDEQAIKTVQEHGVEQLSCGYDCDIKPSTVQDADFEMSPMIGNHVAIVAKGRCGGSVKLADEDKTIMGKTAKILDAFLGAFGIKLSDEQKKQIEDEEKSGSEEGKEPKGEQPTKPKEKKSEPENKKEDDVEKEELEKSLKAKDEEIQQLKDAQAKRDAEVKQAAVLADAKTAFKEVNFADNATVREIQESAVVAQGIFTKDEAAKLSDEEISGAYQTAKVVVAKLADERKSLGNILLGDAEPKAAPKIDFNKTYNS”: the “soluble on expression in E. coli” value is listed as “not soluble”.

Regarding “MKFTSATGSGQQGSSSGTTNSAGNPDSLKQDKVDKSGDSVTVAETTSGDNLTNYTNLPPNLTPTADPNALSFTNKNNAQRAQLFLRALLGSIPVLVNKSGQDDLEHHHHHH”, the “soluble on expression in E. coli” value is on record as “not soluble”.

Take “MKFTSATGSGSGQGSSSGTNTSAGNPDGLQADKVDQNGQVKTSVQEATSGDNLTNYTNLPPANLTPTADPNALSFTNKNNAQRAQLFLRGLLGSIPVLVNKSGQDDLEHHHHHH”: the “soluble on expression in E. coli” value was “not soluble”.

With “MKFWKKGLTAAALLAVAAVTLTACGGSSEKKATEKSEDGKTKLTVTTWNYDTTPEFEKLFRAFEAENPDITIEPVDIASDDYDTKVTTMLSSGDTTDILTMKNLLSYSNYALRNQLVDLTDHVKDLDIEPAKASYEMYEIDGKTYAQPYRTDFWVLYYNKKMFDEAGIAYPDNLTWDEYEALAKKLSKPEEQVYGAYQHTWRSTVQAIAAAQNNANLIEPKYNYMETYYDRALRMQKDQSQMDFGTAKSTKVTYQSQFENSKAAMMYMGSWYMGTLLTNIDDGKTNVEWGIAEIPQQEKGKATTFGSPTSFAINKNSKKQKAAQKFLDFASGKEGAKLLAEVGVVPSYKTDEIDKIYFARKGMPSDEVSQKAFNPDTINLEFPSDKNGAAIDKVLQEEHDLIMVGDEKPKDGIANMEKRVKAEID”, the “soluble on expression in E. coli” value is “not soluble”.

For “MKFYILLVVLVAFVAAKPHPGYGRPSYGGGYGGGGGDFGGGGSGGQWGSQSSSFQQSQSSGGFQNNAGGGFGGGMGPGGGGWGRR”, the “soluble on expression in E. coli” value is “not soluble”.

As to “MKGAARLAPGRPSPAPAWETSDPYAAALRSGHGPLYLRRTDGWLLPLEVERWCARADAVDLDVLDRCEGAVLDVGCGPGRLVAELAARGRTVLGIDVSEAAVTRTVRLGGQSLRRSVFEPLPGEGRWDTVLLMDGNVGIGGDPRTLLGRVAALLAPGGLLIAETAGSDIDERAHVQVVDVTDGDAAGSPFPWARIGTPALLGHARDTGWRPAAQWTSGERRFVALRSSRSASSSAEPPNSTAVTSSQRARKPSADSPVTPWLEHHHHHH”, the “soluble on expression in E. coli” value is given as “not soluble”.

Consider “MKGIIFTEFMELVESKFGLEVLDQVLELSDDEGVYTSVGSYDHRDLVKLIVNLSKVSDIPPEQLQEVFGESVFLNLLRSIPSHASLQQCDNTFQFVRHVESFIHVEVKKLYPDANPPKFDFISETQSELVFDYHSARCMAHVCLGLLKGCAAHFGQVIHIMHQNQTEDGSQVRFWLEAQLEHHHHHH”, for which the “soluble on expression in E. coli” value is “not soluble”.

Take “MKGKMAIVISTLNNPWFVVLAETAKQRAEQLGYEATIFDSQNDTAKESAHFDAIIAAGYDAIIFNPTDADGSIANVKRAKEAGIPVFCVDRGINARGLAVAQIYSDNYYGGVLMGEYFVKFLKEKYPDAKEIPYAELLGILSAQPTWDRSNGFHSVVDQYPEFKMVAQQSAEFDRDTAYKVTEQILQAHPEIKAIWCGNDAMALGAMKACEAAGRTDIYIFGFDGAEDVINAIKEGKQIVATIMQFPKLMARLAVEWADQYLRGERSFPEIVPVTVELVTRENIDKYTAYGRKEEGSHHHHHH”: the “soluble on expression in E. coli” value was “soluble”.

In the case of “MKGMKYHDYIWDLGGTLLDNYETSTAAFVETLALYGITQDHDSVYQALKVSTPFAIETFAPNLENFLEKYKENEARELEHPILFEGVSDLLEDISNQGGRHFLVSHRNDQVLEILEKTSIAAYFTEVVTSSSGFKRKPNPESMLYLREKYQISSGLVIGDRPIDIEAGQAAGLDTHLFTSIVNLRQVLDI”, the “soluble on expression in E. coli” value is “soluble”.

For “MKGSTIGTETKECGKETDFCYNGTADISSFSKFQKAGCNTVICQFHANKCFEQNVSGQLLTFCCCNTDDLCNGGAVTDSGSLFDRGLSVLKGLVSAGKK”, the “soluble on expression in E. coli” value was “not soluble”.

With “MKHEEMNQRFNHLENEITELNKKLSALVSSEDENKRRDEHYAAIYDYCHKVAHETFMKFLQEKFLPAALSEKEAAYLRPEYVITVNSAGEEEHKSDFIASAPDKDQEPHRPFRVSCEEGEFVVYENGKPVRASHHHCLKIINLAIRCLKDENTRVMKRIGRCMGYLQVAAEIEALASGADMDAAVREALLRDFNTPPLRKSLMTGSSRG”, the “soluble on expression in E. coli” value is recorded as “not soluble”.

Take “MKHLSPERLHVTQTAGITQLSPVNGRLYTLTHSDTTGALFLTVSRAFVTDQLTSQRDEVLGEWKQAGQQLVLFLYVFIGNRQMGRQENARRANVFKKELPLALEAIRYGDRAFFHTYPFCDWCPIFIHFTSEYPELNRTEYYGTPYLYR”: the “soluble on expression in E. coli” value is “not soluble”.

As to “MKHTTKQMEILSDIRTLLHKKEEHLKRQNEKFLRETGVSSMSLSELHVIECIGKNGLMNVTAITTEMGMTKGAISKICTKLFQKQFVEKLQMLDNQKEIFFSLTESGNEIYKAHEKLHKQAEEKWLLLLDGYTKEEQDFIQRFIKDVSGHLEI”, the “soluble on expression in E. coli” value is on record as “not soluble”.
